Measurements reported in patent publication US20260209345A1 (IOMX THERAPEUTICS, published 2026).
Values belong to the binder of their own block, whether it stands above or below them.

Experiments:
[1] = biological target: T1, recombinant LILRB2 ECD (human, UniProt Q8N423 22-460); assay: ELISA, LILRB2 ECD binding to HLA-G-Fc
T1 construct: also called biotinylated LILRB2 ECD
Method: (§1) HLA-G inhibition was tested by ELISA. 384-well Maxisorp plates were coated with 2 ug/mL B2M-HLA-G fused to a mouse IgG2a-Fc and the plates were blocked with 2% (w/v) BSA in PBST. […] 15 ul of the antibody dilution series (300 nM to 0.3 nM) were mixed with 30 μL of the pre-mixed LILRB/Avidin-HRP solution (final antibody concentration 100 nM to 0.1 nM) and incubated for 1 h at room temperature. After three wash cycles with PBST, 20 μL of the antibody/LILRB/Avidin-HRP solution was transferred to the plate with immobilized HLA-G and incubated for 15 min at room temperature. After three wash cycles with PBST, residual LILRB binding to HLA-G was detected by developing the ELISA with TMB substrate.

[2] = biological target: T2, recombinant LILRA3 (human, UniProt Q8N6C8 24-439); assay: BLI, IgG on AHC sensor, ECD in solution; biochemical assay, monovalent KD on recombinant protein (Table 2): weak off-target binding, 575 nM
T2 construct: whole entry named; also called LILRA3 ECD; LILA3
Method: (§2) Briefly, IgGs were captured on anti-human capture (AHC) biosensors (Sartorius). […] Subsequently, the sensors were dipped into 1× Kinetics Buffer to measure the dissociation over 420 s. All sensorgrams were double referenced against 1× Kinetics Buffer and unloaded […] sensors to subtract sensor drifts and potential reference binding of the analytes. The affinities were determined by applying a 1:1 binding model.

[3] = biological target: T3, LILRA2 on transiently transfected Expi293 cells (human, UniProt Q8N149 24-483); assay: flow cytometry, transfected Expi293 cells
T3 construct: whole, on cells
Method: (§3) Non-transfected Expi293 cells were used as negative control. Cells were harvested and labeled with CellTraceViolet for multiplexing. […] Subsequently, cells were washed and stained with a secondary anti-human IgG labeled with AF647 for 30 minutes at 4° C. in the dark. Cells were washed again and mixed with 7-AAD viability dye before flow acquisition to test for surface binding.

[4] = biological target: LILRB1 on transiently transfected Expi293 cells (human, UniProt Q8NHL6 24-650); assay: flow cytometry, transfected Expi293 cells
Method: as §3

[5] = biological target: LILRB2 on transiently transfected Expi293 cells (human, UniProt Q8N423 22-597); assay: flow cytometry, transfected Expi293 cells
Method: as §3

[6] = biological target: T4, recombinant LILRB1 ECD (human, UniProt Q8NHL6 24-461); assay: BLI, IgG on AHC sensor, ECD in solution
T4 construct: also called biotinylated LILRB1 ECD
Method: as §2

[7] = biological target: T1, recombinant LILRB2 ECD; assay: BLI, IgG on AHC sensor, ECD in solution
Method: as §2

[8] = biological target: T4, recombinant LILRB1 ECD; assay: ELISA, LILRB1 ECD binding to HLA-G-Fc
Method: as §1

[9] = biological target: T5, recombinant LILRA1 ECD (human, UniProt O75019 17-461); assay: BLI, IgG on AHC sensor, ECD in solution; biochemical assay, monovalent KD on recombinant protein (Table 2): weak off-target binding, 962 nM
T5 construct: whole canonical entry named; also called LILA1
Method: as §2

[10] = biological target: LILRB2 on primary monocytes (human) (UniProt Q8N423); assay: flow cytometry, primary monocytes
[11] = biological target: LILRB2 on transiently transfected Expi293 cells (human) (UniProt Q8N423); assay: flow cytometry, transfected Expi293 cells
[12] = biological target: LILRB2 on Jurkat reporter cells (ILT4/HLA-G Blockade Bioassay Kit, Promega) (human) (UniProt Q8N423); assay: cell-based or functional assay
[13] = biological target: T2, recombinant LILRA3; assay: BLI, IgG on AHC sensor, ECD in solution
Method: as §2

[14] = biological target: T5, recombinant LILRA1 ECD; assay: BLI, IgG on AHC sensor, ECD in solution
Method: as §2

[15] = biological target: LILRA1 on transiently transfected Expi293 cells (human) (UniProt O75019); assay: flow cytometry, transfected Expi293 cells
[16] = biological target: LILRB1 on transiently transfected Expi293 cells (human) (UniProt Q8NHL6); assay: flow cytometry, transfected Expi293 cells
[17] = biological target: LILRA3 on transiently transfected Expi293 cells (human) (UniProt Q8N6C8); assay: flow cytometry, transfected Expi293 cells
Sequence of LILRA3 on transiently transfected Expi293 cells (human) (Q8N6C8 24-439 limits assumed): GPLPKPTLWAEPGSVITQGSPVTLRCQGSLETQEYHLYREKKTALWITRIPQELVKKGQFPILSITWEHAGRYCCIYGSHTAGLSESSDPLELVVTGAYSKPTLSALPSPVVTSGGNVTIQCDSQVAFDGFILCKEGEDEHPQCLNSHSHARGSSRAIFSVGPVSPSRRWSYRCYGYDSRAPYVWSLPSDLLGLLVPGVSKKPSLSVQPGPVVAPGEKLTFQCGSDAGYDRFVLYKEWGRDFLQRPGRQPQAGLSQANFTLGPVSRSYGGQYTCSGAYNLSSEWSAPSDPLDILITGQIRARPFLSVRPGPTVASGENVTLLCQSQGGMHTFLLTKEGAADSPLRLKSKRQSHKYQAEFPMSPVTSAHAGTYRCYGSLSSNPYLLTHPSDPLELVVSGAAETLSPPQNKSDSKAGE

T4 sequence (Q8NHL6 24-461 limits assumed): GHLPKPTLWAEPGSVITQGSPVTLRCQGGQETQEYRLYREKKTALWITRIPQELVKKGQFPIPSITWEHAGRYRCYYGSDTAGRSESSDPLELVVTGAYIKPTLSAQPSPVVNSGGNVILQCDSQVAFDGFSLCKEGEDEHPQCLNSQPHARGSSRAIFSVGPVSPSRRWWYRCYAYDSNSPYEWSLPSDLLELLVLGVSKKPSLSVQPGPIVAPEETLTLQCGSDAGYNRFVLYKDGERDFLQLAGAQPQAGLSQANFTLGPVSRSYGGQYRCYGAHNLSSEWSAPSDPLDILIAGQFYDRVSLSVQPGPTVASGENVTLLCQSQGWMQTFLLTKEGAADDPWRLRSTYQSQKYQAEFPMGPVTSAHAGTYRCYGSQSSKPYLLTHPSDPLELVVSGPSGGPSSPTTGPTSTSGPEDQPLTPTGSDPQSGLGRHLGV
T1 sequence (Q8N423 22-460 limits assumed): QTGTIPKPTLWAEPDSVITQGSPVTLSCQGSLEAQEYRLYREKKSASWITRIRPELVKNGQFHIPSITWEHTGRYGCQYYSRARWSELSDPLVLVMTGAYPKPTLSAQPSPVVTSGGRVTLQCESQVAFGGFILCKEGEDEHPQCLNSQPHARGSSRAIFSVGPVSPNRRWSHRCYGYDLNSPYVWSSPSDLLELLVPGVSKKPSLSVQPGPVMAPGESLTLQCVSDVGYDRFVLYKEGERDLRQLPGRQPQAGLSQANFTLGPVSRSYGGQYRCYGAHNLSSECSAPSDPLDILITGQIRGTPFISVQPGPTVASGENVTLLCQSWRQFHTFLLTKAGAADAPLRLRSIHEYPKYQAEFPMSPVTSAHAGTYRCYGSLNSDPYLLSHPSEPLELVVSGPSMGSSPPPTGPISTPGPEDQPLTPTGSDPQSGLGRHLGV
Sequence of LILRB2 on transiently transfected Expi293 cells (human) (Q8N423 22-597 limits assumed): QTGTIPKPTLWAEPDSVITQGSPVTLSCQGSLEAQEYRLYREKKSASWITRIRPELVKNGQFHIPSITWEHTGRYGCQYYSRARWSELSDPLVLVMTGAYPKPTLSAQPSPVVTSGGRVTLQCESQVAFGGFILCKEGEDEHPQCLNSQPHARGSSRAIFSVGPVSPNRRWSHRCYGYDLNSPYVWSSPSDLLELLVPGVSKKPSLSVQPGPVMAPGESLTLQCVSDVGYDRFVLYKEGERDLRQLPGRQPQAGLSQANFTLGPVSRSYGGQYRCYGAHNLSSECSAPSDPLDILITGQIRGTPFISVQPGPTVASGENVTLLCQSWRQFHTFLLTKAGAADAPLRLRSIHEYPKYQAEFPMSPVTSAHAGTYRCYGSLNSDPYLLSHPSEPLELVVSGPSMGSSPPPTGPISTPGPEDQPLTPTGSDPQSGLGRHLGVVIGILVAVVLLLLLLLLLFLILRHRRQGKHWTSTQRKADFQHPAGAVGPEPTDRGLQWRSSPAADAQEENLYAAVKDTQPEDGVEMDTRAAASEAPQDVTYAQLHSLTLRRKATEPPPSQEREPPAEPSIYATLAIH
T2 sequence (Q8N6C8 24-439 limits assumed): as the sequence (Q8N6C8 24-439 limits assumed) above
T5 sequence (O75019 17-461 limits assumed): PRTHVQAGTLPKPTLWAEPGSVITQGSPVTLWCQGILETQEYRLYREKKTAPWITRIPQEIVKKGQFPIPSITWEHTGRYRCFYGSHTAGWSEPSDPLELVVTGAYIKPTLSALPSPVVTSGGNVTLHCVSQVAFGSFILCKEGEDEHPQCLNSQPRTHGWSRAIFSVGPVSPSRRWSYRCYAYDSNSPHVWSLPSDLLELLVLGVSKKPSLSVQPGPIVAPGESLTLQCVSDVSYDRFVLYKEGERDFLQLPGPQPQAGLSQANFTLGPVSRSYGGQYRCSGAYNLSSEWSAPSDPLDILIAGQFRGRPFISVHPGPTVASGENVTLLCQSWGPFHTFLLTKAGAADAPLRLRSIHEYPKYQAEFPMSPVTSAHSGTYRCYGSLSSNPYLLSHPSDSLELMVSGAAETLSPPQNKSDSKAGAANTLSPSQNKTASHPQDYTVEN
Sequence of LILRB1 on transiently transfected Expi293 cells (Q8NHL6 24-650 limits assumed): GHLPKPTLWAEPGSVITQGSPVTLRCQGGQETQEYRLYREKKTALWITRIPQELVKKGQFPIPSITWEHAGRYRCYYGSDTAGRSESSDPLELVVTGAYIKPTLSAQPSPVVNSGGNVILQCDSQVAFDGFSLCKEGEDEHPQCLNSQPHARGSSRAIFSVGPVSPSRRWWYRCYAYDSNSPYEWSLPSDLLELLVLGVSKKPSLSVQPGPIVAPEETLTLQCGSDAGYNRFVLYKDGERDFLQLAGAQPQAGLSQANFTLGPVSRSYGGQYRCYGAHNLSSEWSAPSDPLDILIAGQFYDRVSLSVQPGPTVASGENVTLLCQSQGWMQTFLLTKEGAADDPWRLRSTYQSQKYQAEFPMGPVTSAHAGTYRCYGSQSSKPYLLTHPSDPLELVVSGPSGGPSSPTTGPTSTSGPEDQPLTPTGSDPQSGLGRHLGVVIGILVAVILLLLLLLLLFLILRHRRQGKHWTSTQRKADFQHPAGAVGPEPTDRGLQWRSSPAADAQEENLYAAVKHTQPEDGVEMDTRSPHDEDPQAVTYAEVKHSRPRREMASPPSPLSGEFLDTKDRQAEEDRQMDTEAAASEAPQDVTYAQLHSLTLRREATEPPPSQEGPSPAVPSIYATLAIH
Sequence of LILRB1 on transiently transfected Expi293 cells (human) (Q8NHL6 24-650 limits assumed): as above
Sequence of LILRB2 on primary monocytes (human) (Q8N423 22-597 limits assumed): as the sequence (Q8N423 22-597 limits assumed) above
Sequence of LILRB2 on Jurkat reporter cells (ILT4/HLA-G Blockade Bioassay Kit, Promega) (human) (Q8N423 22-597 limits assumed): as above
Sequence of LILRB2 on transiently transfected Expi293 cells (Q8N423 22-597 limits assumed): as above
T3 sequence (Q8N149 24-483): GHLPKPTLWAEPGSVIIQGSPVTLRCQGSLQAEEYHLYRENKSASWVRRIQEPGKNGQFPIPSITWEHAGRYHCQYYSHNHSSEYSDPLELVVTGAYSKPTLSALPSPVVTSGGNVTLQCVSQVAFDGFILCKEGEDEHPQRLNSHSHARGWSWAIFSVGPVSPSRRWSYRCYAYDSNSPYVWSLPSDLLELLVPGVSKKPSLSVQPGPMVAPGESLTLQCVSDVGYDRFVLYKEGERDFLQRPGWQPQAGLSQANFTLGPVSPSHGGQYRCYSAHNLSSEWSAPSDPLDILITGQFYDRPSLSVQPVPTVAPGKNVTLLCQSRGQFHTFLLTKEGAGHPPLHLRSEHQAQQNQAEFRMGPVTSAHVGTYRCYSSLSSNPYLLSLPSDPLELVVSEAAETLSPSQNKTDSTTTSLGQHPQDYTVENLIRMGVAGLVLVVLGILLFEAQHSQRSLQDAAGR
Sequence of LILRA1 on transiently transfected Expi293 cells (human) (O75019 17-489 limits assumed): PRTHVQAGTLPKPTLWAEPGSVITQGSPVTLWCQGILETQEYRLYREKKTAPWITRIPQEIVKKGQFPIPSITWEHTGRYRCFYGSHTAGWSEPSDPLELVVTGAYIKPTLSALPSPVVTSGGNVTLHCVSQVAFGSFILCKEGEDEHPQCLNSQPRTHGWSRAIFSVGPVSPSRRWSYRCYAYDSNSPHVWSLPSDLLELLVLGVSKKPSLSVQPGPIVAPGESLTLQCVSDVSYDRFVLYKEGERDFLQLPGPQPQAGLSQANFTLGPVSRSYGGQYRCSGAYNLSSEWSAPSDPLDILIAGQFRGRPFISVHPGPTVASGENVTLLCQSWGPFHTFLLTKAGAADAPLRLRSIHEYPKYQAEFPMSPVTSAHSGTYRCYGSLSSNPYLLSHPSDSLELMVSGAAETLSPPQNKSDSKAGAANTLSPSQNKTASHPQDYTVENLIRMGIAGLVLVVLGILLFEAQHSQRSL

- IC50 [1]: 3.5 nM
- Kd [2]: 575 nM
- binding result [3]: no binding
- EC50 [4]: 1.5 nM
- EC50 [5]: 1.3 nM
- Kd [6]: 2.3 nM
- Kd [7]: 2.8 nM
- IC50 [8]: 2.1 nM
- Kd [9]: 962 nM
B1: A-045 (antibody, V domains shown)
VH: QVQLVQSGAEVKKPGSSVKVSCKASGGTFQSQAFAWVRQAPGQGLEWMGSIIPGFSTANYAQKFQGRVTITADESTSTAYMELSSLRSEDTAVYYCAKDLGTYSSGWPYYYGMDVWGQGTTVTVSS
VL: SYELTQPPSVSVSPGQTASITCSGDKLGDKYASWYQQKPGQSPVLVIYQDSKRPSGIPERFSGSNSGNTATLTISGTQAEDEADYYCQLTHLTIYVFGGGTKLTVL
notes: tested as IgG; HC of A-010 and LC of A-036

- IC50 [1]: 3.1 nM
- Kd [7]: 3.4 nM
- EC50 [10]: 1 nM
- EC50 [11]: 1.7 nM
B2: Ref047 [MK-4830, LILRB2 specific] (antibody, from another filing, V domains shown)
VH: EVQLQQWGAGLLKPSETLSLTCAVYGGSFSGYYWSWIRQPPGKGLEWIGEINHAGSTNYNPSLKSRVTISVDTSKNQFSLKLSSVTAADTAVYYCARLPTRWVTTRYFDLWGRGTLVTVSS
VL: ESVLTQPPSVSGAPGQRVTISCTGSSSNIGAGYDVHWYQQLPGTAPKLLIYGDSNRPSGVPDRFSVSKSGASASLAITGLQAEDEADYYCQSFDNSLSAYVFGGGTQLTVL

- luminescence of LILRB2-expressing Jurkat reporter cells with HLA-G expressing APC/CHO-K1 cells (ILT4/HLA-G Blockade Bioassay) [12]: 0.9 nM
- IC50 [1]: 4.7 nM
- Kd [6]: 0.5 nM
- Kd [13]: 1.4 nM
- Kd [7]: 0.4 nM
- Kd [14]: 0.6 nM
- IC50 [8]: 5.7 nM
- EC50 [15]: 3.7 nM
- EC50 [11]: 17.3 nM
- EC50 [16]: 9.1 nM
- EC50 [17]: 7.8 nM
B3: Ref062 [NGM707, cross-specific] (antibody, from another filing, V domains shown)
VH: QVQLVQSGAEVKKPGASVKVSCKASGYTFTDYYINWVRQAPGQGLEWMGNVNPNDGGTTYNQKFKGRVTMTTDTSTSTAYMELRSLRSDDTAVYYCARREIYFYGTIYYYAMDYWGQGTLVTVSS
VL: DIQLTQSPSFLSASVGDRVTITCRASESVDYYGNSFMYWYQQKPGKAPKLLIYFASNLESGVPSRFSGSGSGTEFTLTISSLQPEDFATYYCQQNNEDPWTFGGGTKVEIKR
